Test results published in US20240352070A1 (ECOLE POLYTECHNIQUE FEDERALE DE LAUSANNE EPFL, published 2024).
Square brackets hold non-standard residues; d marks the D form. Ends that are not written are not given here. Michael acceptor = not defined here

Experiments:
[1] = target: human cathepsin S wild-type, amino acids 17 to 331, C-terminal His-tag (CTSS-His) (human, UniProt P25774 115-331); experiment: cell-based or functional assay
[2] = target: purified cathepsin B (CTSB), purchased from RndSystems (UniProt P07858 80-333); experiment: cell-based or functional assay

human cathepsin S wild-type, amino acids 17 to 331, C-terminal His-tag (CTSS-His), sequence (P25774 115-331 limits assumed, form in doubt): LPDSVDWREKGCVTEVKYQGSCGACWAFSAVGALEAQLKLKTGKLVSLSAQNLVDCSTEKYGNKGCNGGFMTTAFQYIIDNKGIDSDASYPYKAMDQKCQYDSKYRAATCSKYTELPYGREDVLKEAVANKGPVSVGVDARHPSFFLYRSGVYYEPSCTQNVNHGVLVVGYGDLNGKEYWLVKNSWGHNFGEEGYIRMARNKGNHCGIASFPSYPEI

| Binder | IC50, CTSS activity, FRET assay dose-response [1] | IC50, CTSB activity, FRET assay dose-response [2] |
| --- | --- | --- |
| KRRY[Michael acceptor]WMW (not fully specified; reading uncertain) [Non-natural peptide inhibitor D5, KRRY(Y)WMW] | 86600 nM | 61.9 nM |
| KHRM[Michael acceptor]VMW (not fully specified; reading uncertain) [Non-natural peptide inhibitor C10, KHRM(Y)VMW] | 49.3 nM | – |
